{"source": "patent US20230414778A1", "about": "“COMBINATION OF ANTIBODY-DRUG CONJUGATE WITH ANTI-SIRPalpha ANTIBODY” (DAIICHI SANKYO COMPANY, LIMITED, priority 2020, published 2023)", "key": {"cancer cells": {"system": "cancer cells", "conditions": "known from literature; cited from earlier work"}, "[1]": {"system": "all 10 types of SIRPα variant", "conditions": "Patent References 1 to 3; cited from earlier work"}, "SIRPγ": {"target": "SIRPγ (Homo sapiens, UniProt Q9P1W8)", "sequence (Q9P1W8 29-387)": "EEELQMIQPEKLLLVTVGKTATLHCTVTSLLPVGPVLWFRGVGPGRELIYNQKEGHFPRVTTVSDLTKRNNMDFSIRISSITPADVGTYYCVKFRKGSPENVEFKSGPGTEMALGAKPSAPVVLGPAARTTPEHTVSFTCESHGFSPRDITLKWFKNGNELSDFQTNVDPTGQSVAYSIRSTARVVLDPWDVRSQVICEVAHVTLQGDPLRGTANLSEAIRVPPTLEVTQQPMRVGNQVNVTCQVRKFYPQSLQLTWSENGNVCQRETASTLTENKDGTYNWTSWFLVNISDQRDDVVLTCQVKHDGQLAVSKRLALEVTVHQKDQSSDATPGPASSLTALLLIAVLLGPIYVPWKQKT", "conditions": "Patent References 1 to 3; cited from earlier work"}, "SIRPβ1": {"target": "SIRPβ1 (Homo sapiens, UniProt O00241)", "sequence (O00241 30-398)": "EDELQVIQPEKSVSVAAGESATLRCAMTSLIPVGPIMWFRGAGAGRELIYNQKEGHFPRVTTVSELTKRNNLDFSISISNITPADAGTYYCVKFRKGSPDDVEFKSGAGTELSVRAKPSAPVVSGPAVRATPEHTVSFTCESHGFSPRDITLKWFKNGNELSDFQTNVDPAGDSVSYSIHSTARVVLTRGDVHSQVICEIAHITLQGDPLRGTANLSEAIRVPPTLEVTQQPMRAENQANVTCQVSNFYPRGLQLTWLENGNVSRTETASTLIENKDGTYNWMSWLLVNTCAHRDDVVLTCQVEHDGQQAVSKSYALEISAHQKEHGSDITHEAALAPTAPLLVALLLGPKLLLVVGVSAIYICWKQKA", "conditions": "Patent References 1 to 3; cited from earlier work"}, "SIRPα V1": {"target": "SIRPα V1 (Homo sapiens, UniProt P78324)", "conditions": "Patent References 1 to 3; cited from earlier work"}, "CT26.WT-HER3 cells": {"system": "CT26.WT-HER3 cells", "assay": "Antitumor study (3)", "type": "in vivo, BALB/c mice", "conditions": "single administration, 10 mg/kg, Day 18", "description": "Mouse: Female 6-week-old BALB/c mice (BALB/c AnNCrlCrlj) (bred by CHARLES RIVER LABORATORIES JAPAN, INC.) were subjected to experiments.\nMeasurement and calculation formula: the long diameter and short diameter of tumors were measured twice a week with an electronic digital caliper (CD15-CX, manufactured by Mitutoyo Corporation), and the tumor volumes (mm^3) were calculated. The calculation formula is shown below:\nTumor volume (mm^3)=0.5×Long diameter (mm)×[Short diameter (mm)]^2\nIndividuals having a tumor volume of beyond 3000 mm^3 were humanely killed from an ethical point of view for animal experiments.\nThe antibody-drug conjugate (3) (Drug-to-Antibody Ratio: 8) and an anti-SIRPα antibody (clone: 5C12) were diluted with PBS, and used for administration.\nTo mouse colorectal cancer cell line CT26.WT (CRL2638) purchased from the American Type Culture Collection, a human HER3 gene was transfected by use of a lentivirus vector to prepare CT26.WT-HER3 cells, which were put in use. The cells express a human HER3 protein on the cell membrane. CT26.WT-HER3 cells were suspended in saline, and 2.0×10^6 cells were subcutaneously inoculated into the right axilla of each of the BALB/c mice (Day 0). Seven days later, the mice were randomly grouped (Day 7). […] P value was expressed to four decimal places and the results satisfying P<0.05 (two-sided test) were determined as being significant."}, "mouse SIRPα antigen": {"target": "T1, mouse SIRPα antigen (Mus musculus, UniProt P97797)", "T1 sequence (P97797 32-513)": "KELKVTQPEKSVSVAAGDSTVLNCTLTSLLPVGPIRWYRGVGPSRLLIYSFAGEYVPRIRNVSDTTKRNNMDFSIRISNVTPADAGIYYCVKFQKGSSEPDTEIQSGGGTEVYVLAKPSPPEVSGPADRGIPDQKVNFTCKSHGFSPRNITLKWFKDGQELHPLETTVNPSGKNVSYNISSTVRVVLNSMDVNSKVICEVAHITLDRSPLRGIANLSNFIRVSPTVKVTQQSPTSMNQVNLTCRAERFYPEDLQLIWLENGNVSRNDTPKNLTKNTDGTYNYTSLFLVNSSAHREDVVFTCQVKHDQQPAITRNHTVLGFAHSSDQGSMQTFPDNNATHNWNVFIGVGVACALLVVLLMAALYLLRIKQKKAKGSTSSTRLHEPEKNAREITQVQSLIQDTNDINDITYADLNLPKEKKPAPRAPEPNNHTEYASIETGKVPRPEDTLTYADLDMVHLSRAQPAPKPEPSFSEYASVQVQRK", "assay": "Binding affinity to mouse SIRPα antigen", "description": "The lymph node cells and mouse myeloma SP2/0-ag14 cells (ATCC: CRL-1581) were fused in accordance with a polyethylene glycol method. The fused cells were suspended in HAT selective medium and cultured in accordance with the limiting dilution method. The hybridoma colonies that emerged were collected. In this manner, monoclonal hybridomas were prepared. The collected hybridoma colonies were cultured. Using the resultant hybridoma culture supernatant, an antibody-producing hybridoma was screened based on binding activity to a mouse SIRPα protein as an index. In this manner, clone: 5C12 was screened."}, "4T1-hmHER2 cells": {"system": "4T1-hmHER2 cells", "assay": "Antitumor study (1)", "type": "in vivo, BALB/c mice", "conditions": "single administration, 10 mg/kg, Day 21", "quoted_text": "Individuals having a tumor volume of beyond 3000 mm^3 were humanly killed from an ethical point of view for animal experiments.\nThe antibody-drug conjugate (1) (Drug-to-Antibody Ratio: 7.6) was diluted with PBS, and a dose of 10 mL/kg was intravenously administered to the tail vein.\nTo mouse breast cancer cell line 4T1 (CRL-2539) purchased from the American Type Culture Collection, a human/mouse chimera HER2 gene was transfected by use of a lentivirus vector to prepare 4T1-hmHER2 cells, which were put in use. The cells express a human/mouse chimera HER2 protein on the cell membrane. Then, 4T1-hmHER2 cells were suspended in PBS and 1.0×10^6 cells were subcutaneously inoculated into the right axilla of each of the BALB/c mice (Day 0). Four days later, the mice were randomly grouped (Day 4). The antibody-drug conjugate (1) was intravenously administered at a dose of 10 mg/kg on Day 4 and 11 (two times in total) to the tail vein. […] P value was expressed to four decimal places and the results satisfying P<0.05 (two-sided test) were determined as being significant."}, "CT26.WT-hTROP2 cells": {"system": "CT26.WT-hTROP2 cells", "assay": "Antitumor study (2)", "type": "in vivo, BALB/c mice", "conditions": "single administration, 10 mg/kg, Day 18", "description": "Mouse: Female 6-week-old BALB/c mice (BALB/c AnNCrlCrlj) (bred by CHARLES RIVER LABORATORIES JAPAN, INC.) were subjected to experiments. Measurement and calculation formula: the long diameter and short diameter of tumors were measured twice a week with an electronic digital caliper (CD15-CX, manufactured by Mitutoyo Corporation), and the tumor volumes (mm^3) were calculated. The calculation formula is shown below: […] Individuals having a tumor volume of beyond 3000 mm^3 were humanely killed from an ethical point of view for animal experiments. […] An anti-SIRPα antibody (clone: 5C12) was diluted with PBS, and a dose of 10 mL/kg was intraperitoneally administered. […] The cells express a human TROP2 protein on the cell membrane. CT26.WT-hTROP2 cells were suspended in saline, and 2.0×10^6 cells were subcutaneously inoculated into the right axilla of each of the BALB/c mice (Day 0). Seven days later, the mice were randomly grouped (Day 7). […] The anti-SIRPα antibody (clone: 5C12) was intraperitoneally administered at a dose of 10 mg/kg on Day 8, 11 and 13 (three times in total). […] Measurement of the tumor volume was continued until Day 18. […] P value was expressed to four decimal places and the results satisfying P<0.05 (two-sided test) were determined as being significant."}}, "data": [{"molecule": "O=P1(N(CCCl)CCCl)NCCCO1", "note": "(stereo not shown) [Cyclophosphamide]", "values": [{"measurement": "ICD induction", "setting": "cancer cells", "result": "inducing ICD"}]}, {"molecule": "CC(=O)O[C@@]12CO[C@@H]1C[C@H](O)[C@@]1(C)C(=O)[C@H](O)C3=C(C)[C@@H](OC(=O)[C@H](O)[C@@H](NC(=O)OC(C)(C)C)c4ccccc4)C[C@@](O)([C@@H](OC(=O)c4ccccc4)[C@H]21)C3(C)C", "note": "[Docetaxel]", "values": [{"measurement": "ICD induction", "setting": "cancer cells", "result": "not confirmed to induce ICD"}]}, {"molecule": "CO[C@@]12[C@H](COC(N)=O)C3=C(C(=O)C(C)=C(N)C3=O)N1C[C@@H]1N[C@@H]12", "note": "[Mitomycin C]", "values": [{"measurement": "ICD induction", "setting": "cancer cells", "result": "not confirmed to induce ICD"}]}, {"molecule": "O=C1[O][Pt]2([NH][C@@H]3CCCC[C@H]3[NH]2)[O]C1=O", "note": "[Oxaliplatin]", "values": [{"measurement": "ICD induction", "setting": "cancer cells", "result": "inducing ICD"}]}, {"molecule": "ADU-1805: anti-SIRPα IgG2 antibody of WO 2018/190719, SEQ ID NO: 28 and 29", "values": [{"measurement": "binding to all 10 types of SIRPα variant", "setting": "[1]", "result": "binds"}, {"measurement": "binding to SIRPγ", "setting": "SIRPγ", "result": "binds"}]}, {"molecule": "KWAR23: anti-SIRPα antibody of WO 2018/026600, SEQ ID NO: 26 and 27", "values": [{"measurement": "binding to all 10 types of SIRPα variant", "setting": "[1]", "result": "binds"}, {"measurement": "binding to SIRPβ1", "setting": "SIRPβ1", "result": "binds"}, {"measurement": "binding to SIRPγ", "setting": "SIRPγ", "result": "binds"}]}, {"molecule": "OSE-172: anti-SIRPα IgG4Pro antibody of WO 2017/178653, SEQ ID NO: 24 and 25", "values": [{"measurement": "binding to SIRPα V1", "setting": "SIRPα V1", "result": "binds"}, {"measurement": "binding to SIRPβ1", "setting": "SIRPβ1", "result": "binds"}]}, {"molecule": "5C12: rat-derived anti-mouse SIRPα surrogate antibody, heavy and light chain SEQ ID NOs: 30 and 31 (antibody, listed as Mus musculus) heavy: MKHLWFFLLLVAAPRWVLSEVQLVESGGGLVQPGGSLKLSCAASGFTFSNYDMAWVRQAPTKGLEWVASISTRGGSSYYRDSVKGRFTVSRDNAKSTLYLQMDSLRSEDTATYYCARHPGDYFDYWGQGVMVTVSSAKTTPPSVYPLAPGSAAQTNSMVTLGCLVKGYFPEPVTVTWNSGSLSSGVHTFPAVLQSDLYTLSSSVTVPSSTWPSETVTCNVAHPASSTKVDKKIVPRDCGCKPCICTVPEVSSVFIFPPKPKDVLTITLTPKVTCVVVAISKDDPEVQFSWFVDDVEVHTAQTQPREEQFNSTFRSVSELPIMHQDWLNGKEFKCRVNSAAFPAPIEKTISKTKGRPKAPQVYTIPPPKEQMAKDKVSLTCMITDFFPEDITVEWQWNGQPAENYKNTQPIMDTDGSYFVYSKLNVQKSNWEAGNTFTCSVLHEGLHNHHTEKSLSHSPGK light: MVLQTQVFISLLLWISGAYGDTVLTQSPALAVSPGERVTISCRASESVSTLIHWYQQKPGQQPKLLIYLTSHLESGVPARFSGSGSGTDFTLTIDPVEADDTATYYCQQSWTHPWTFGGGTKLELKRADAAPTVSIFPPSSEQLTSGGASVVCFLNNFYPKDINVKWKIDGSERQNGVLNSWTDQDSKDSTYSMSSTLTLTKDEYERHNSYTCEATHKTSTSPIVKSFNRNEC", "values": [{"measurement": "antitumor effect (tumor volume) compared to the control group", "setting": "CT26.WT-HER3 cells", "result": "no therapeutic effect"}, {"measurement": "binding affinity to mouse SIRPα antigen compared with that of hD13_H1L3 to a human SIRPα antigen", "setting": "mouse SIRPα antigen", "result": "at the same level"}, {"measurement": "binding affinity to the mouse SIRPα antigen", "setting": "mouse SIRPα antigen", "result": "high binding affinity"}, {"measurement": "antitumor effect (tumor volume) compared to the control group", "setting": "4T1-hmHER2 cells", "result": "significantly stronger antitumor effect"}, {"measurement": "antitumor effect (tumor volume) compared to the control group", "setting": "CT26.WT-hTROP2 cells", "result": "partial antitumor effect"}]}]}
